Measurements as given in patent US20170174776A1.

How the values were obtained:
[1] = target: fusion protein of the human transferrin receptor extracellular domain linked to human IgG1 Fc (human) (UniProt P02786); experiment: ELISA, coated human TfR ECD-Fc, pH 5.5
[2] = target: fusion protein of the human transferrin receptor extracellular domain linked to human IgG1 Fc (human) (UniProt P02786); experiment: ELISA, coated human TfR ECD-Fc, pH 5.5 against pH 7.4
[3] = target: fusion protein of the human transferrin receptor extracellular domain linked to human IgG1 Fc (human) (UniProt P02786); experiment: ELISA, coated human TfR ECD-Fc, pH 7.4

fusion protein of the human transferrin receptor extracellular domain linked to human IgG1 Fc (human), sequence (P02786 89-760): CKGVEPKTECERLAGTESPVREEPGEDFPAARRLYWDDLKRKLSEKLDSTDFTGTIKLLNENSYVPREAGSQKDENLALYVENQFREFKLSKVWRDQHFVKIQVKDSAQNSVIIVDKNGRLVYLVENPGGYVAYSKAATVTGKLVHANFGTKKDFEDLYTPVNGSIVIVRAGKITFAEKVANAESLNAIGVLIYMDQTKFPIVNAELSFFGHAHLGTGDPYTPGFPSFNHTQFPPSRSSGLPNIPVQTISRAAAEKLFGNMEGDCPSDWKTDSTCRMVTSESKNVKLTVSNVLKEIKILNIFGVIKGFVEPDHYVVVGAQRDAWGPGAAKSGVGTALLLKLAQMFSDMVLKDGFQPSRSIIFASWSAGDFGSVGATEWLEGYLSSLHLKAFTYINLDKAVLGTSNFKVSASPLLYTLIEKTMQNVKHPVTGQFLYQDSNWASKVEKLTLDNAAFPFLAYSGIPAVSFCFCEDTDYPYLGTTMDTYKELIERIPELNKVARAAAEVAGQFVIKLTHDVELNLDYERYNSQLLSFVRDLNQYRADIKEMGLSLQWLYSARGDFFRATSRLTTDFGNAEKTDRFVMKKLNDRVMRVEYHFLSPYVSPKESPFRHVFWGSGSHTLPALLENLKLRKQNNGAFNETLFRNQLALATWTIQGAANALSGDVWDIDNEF

Row | EC50 [1] [µg/mL] | ratio EC50 pH 5.5/EC50 pH 7.4 [2] | EC50 [3] [µg/mL] | Substance
1 | 0.59 |  |  | mAb MEM-75 (antibody)
2 | 0.691 | 10.6 | 0.065 | mAb OKT-9 (antibody)
3 | > 1 | > 15.6 | 0.0642 | mAb MEM-189 (antibody)
